Measured values as given in patent US20130281374A1.

Molecular target: T1, human GIP receptor (human), P48546
T1 chain: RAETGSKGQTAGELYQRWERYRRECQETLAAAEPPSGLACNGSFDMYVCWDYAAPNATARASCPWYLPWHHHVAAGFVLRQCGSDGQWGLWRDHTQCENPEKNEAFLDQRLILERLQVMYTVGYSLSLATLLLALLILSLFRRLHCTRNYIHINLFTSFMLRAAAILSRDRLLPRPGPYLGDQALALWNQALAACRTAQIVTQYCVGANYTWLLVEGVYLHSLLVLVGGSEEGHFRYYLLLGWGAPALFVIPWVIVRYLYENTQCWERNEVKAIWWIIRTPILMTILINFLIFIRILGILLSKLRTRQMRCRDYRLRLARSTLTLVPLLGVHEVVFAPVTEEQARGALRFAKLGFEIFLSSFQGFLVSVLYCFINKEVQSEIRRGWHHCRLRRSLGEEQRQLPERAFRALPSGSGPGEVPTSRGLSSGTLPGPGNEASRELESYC
Assay: 125I-GIP displacement, HEK-GIPR membranes

% Inh 10 nM: 3%
Binder: HGEGTLISDYSIAMDKIHQQDFVNWLLAQKPKKIRYS (modifications not checked) [0601GIP4843]
